Assay [1] addresses T1, mFz: Fz domain and C-terminal flanking sequence of mouse MuSK (D307 to T494) with C-terminal Avi- and … (mouse, UniProt Q61006 307-494, limits assumed, biotinylated in vitro using the BirA enzyme).
T1 construct: also called mouse Fz; not shown: Avi- and His6-tags
T1 sequence (looked up): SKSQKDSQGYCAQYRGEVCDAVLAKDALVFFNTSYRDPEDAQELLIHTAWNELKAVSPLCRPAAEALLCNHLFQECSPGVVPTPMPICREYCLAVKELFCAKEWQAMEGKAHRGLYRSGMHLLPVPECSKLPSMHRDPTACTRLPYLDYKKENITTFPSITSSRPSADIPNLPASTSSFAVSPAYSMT
As to the kind of experiment: bead-binding assay, Fab format: biotinylated antigen on streptavidin beads, flow cytometry, 1:1 fit; average ± s.d., n=3. Background: A flow cytometer gives signals particle by particle.

The target in assay [2] is T2, mECD: full-length extracellular region of mouse MuSK (E22 to T494) with C-terminal Avi- and His6-tags (mouse, UniProt Q61006 22-494, biotinylated in vitro using the BirA enzyme).
T2 construct: range 22-494; also called mouse ECD; not shown: Avi- and His6-tags
T2 sequence (looked up): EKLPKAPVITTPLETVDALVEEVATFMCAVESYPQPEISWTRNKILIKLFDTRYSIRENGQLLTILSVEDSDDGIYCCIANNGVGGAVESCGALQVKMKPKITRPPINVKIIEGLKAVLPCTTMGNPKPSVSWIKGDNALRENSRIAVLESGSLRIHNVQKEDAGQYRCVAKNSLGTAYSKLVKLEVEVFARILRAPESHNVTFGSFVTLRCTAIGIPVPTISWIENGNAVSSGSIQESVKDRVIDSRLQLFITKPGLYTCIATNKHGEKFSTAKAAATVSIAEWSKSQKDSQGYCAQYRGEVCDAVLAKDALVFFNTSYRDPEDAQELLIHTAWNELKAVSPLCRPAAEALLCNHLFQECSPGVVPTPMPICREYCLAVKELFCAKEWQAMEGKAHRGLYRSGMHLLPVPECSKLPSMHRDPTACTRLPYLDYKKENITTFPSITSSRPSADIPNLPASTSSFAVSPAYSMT
The description is as above.

Assay [3] addresses T3, hFz: Fz domain and C-terminal flanking sequence of human MuSK (K314-T495) with C-terminal Avi- and His6-tags (human, UniProt O15146 314-495, biotinylated in vitro using the BirA enzyme).
T3 construct: also called human Fz; not shown: Avi- and His6-tags
T3 sequence: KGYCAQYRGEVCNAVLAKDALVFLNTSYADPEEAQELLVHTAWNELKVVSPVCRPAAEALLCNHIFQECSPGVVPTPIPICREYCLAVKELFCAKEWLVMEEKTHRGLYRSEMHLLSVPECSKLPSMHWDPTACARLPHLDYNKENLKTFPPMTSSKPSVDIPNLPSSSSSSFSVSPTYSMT
The description is as above.

Assay [4] addresses T4, hECD: full-length extracellular region of human MuSK (E22 to T495) with C-terminal Avi- and His6-tags (human, UniProt O15146 22-495, biotinylated in vitro using the BirA enzyme).
T4 construct: also called human ECD; not shown: Avi- and His6-tags
T4 sequence: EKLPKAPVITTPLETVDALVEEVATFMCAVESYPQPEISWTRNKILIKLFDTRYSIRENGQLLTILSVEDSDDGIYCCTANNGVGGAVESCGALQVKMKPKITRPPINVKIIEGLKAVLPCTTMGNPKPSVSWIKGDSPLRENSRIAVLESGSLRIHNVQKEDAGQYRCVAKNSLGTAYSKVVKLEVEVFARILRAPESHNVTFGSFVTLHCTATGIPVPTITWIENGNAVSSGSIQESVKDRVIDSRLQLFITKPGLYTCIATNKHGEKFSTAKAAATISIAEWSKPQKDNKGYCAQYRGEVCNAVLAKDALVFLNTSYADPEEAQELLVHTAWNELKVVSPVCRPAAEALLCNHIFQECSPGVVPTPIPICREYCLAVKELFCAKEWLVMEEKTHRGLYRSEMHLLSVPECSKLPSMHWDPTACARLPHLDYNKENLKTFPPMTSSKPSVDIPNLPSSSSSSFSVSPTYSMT
The description is as above.

In assay [5] the target is T5, rat MuSK (rat, UniProt Q62838 22-494, limits assumed).
T5 construct: Coated on Biacore chip (200RU) or ELISA plate
T5 sequence (looked up): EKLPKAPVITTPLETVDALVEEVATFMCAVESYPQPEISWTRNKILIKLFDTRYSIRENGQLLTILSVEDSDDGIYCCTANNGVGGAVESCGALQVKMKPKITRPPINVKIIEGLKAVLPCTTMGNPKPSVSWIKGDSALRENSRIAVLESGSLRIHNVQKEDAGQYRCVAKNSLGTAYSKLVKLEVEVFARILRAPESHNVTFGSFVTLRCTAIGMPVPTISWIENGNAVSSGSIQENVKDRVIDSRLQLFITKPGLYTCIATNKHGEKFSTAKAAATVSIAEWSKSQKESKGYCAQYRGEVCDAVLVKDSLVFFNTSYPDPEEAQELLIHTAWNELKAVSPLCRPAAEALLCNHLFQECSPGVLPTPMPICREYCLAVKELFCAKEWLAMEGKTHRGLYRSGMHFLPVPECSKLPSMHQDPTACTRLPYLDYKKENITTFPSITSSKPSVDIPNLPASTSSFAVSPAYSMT
Description: Biacore, MuSK on chip (200RU), 66.7 nM mAb, dissociation pH 7.4. The protocol:
(§1) For affinity determination, a CMS chip was coated with cynomolgus monkey, rat and mouse MuSK (200RU) and 66.7 nM of antibody was applied and kinetic parameters calculated (Table 8). The following conclusions could be drawn: (1) 3B2g1m3 and 3B2g2m3 (m3 variants) show significant drop in affinity for MuSK for all species tested; (2) 3B2g1m2 and 3B2g2m2 (m2 variants) show some drop in affinity for MuSK; (3) 3B2g1m1, 3B2g2m1, 3B2g1m4, 3B2g2m4 (ml and m4 variants) show no drop in affinity for MuSK for all species tested; and (4) for all clones there is no difference between g1 and g2 variants (VL methionine versus serine in CDR3).
In general terms: Surface plasmon resonance follows binding to a sensor surface in real time, without labels.

The target in assay [6] is T6, mouse MuSK (mouse, UniProt Q61006 22-494, limits assumed).
T6 construct: Coated on ELISA plates or on the Biacore chip; also called full length mouse MuSK; mouse MuSK (in house produced in HEK293 cells)
T6 sequence (looked up): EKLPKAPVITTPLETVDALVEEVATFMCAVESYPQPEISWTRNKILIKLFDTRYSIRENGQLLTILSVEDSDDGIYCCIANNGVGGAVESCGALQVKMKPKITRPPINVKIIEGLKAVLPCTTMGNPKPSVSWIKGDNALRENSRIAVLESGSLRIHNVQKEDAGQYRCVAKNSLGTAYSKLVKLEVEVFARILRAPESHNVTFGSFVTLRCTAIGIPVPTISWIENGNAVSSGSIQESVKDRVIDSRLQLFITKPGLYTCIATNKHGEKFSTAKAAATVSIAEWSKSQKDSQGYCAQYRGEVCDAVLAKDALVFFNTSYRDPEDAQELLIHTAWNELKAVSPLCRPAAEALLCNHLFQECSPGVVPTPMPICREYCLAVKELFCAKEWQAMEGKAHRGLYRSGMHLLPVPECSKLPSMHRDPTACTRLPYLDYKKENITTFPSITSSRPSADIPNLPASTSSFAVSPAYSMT
The description is as above. The protocol: as §1

For assay [7], the target named is T7, cynomolgus monkey MuSK (cynomolgus monkey, UniProt A0A2K5USF6 24-487). Described as above. The protocol:
as §1

Assay [8] concerns the target T5, rat MuSK. As to the kind of experiment: Biacore, MuSK on chip, association pH 7.4, dissociation pH 5.5. The protocol:
as §1
(§2) In order to study pH dependent binding of our antibodies to MuSK, the same Biacore was used as above, but now dissociation was done at pH 5.5 instead of pH 7.4. […] The following conclusions could be drawn for the different variants: (1) 3B2g1m3 and 3B2g2m3 (m3 variants) show significant drop in affinity for MuSK for all species tested; (2) 3B2g1m2 and 3B2g2m2 (m2 variants) show some drop in affinity for MuSK; (3) 3B2g1m1, 3B2g2m1, 3B2g1m4, 3B2g2m4 (m1 and m4 variants) show no drop in affinity for MuSK for all species tested; and (4) for all clones there is no difference between g1 and g2 variants (VL methionine versus serine in CDR3).

For assay [9], the target named is T6, mouse MuSK. Described as above. The protocol:
as §1, §2

For assay [10], the target named is T7, cynomolgus monkey MuSK. Described as above. The protocol:
as §1, §2

T7 sequence (A0A2K5USF6 entry or part of it): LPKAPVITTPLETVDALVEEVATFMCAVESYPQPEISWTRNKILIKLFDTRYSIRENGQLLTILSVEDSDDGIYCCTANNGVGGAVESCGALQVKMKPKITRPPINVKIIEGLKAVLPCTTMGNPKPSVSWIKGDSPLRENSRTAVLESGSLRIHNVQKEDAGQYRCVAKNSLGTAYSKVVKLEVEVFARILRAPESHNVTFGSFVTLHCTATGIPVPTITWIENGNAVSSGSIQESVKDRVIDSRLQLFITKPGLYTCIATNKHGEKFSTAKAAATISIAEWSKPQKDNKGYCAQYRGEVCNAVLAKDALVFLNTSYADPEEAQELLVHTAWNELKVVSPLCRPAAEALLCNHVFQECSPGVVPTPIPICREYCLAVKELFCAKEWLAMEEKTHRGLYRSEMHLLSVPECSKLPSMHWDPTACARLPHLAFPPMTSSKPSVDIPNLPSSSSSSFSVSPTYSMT

B1: X7 Fab (Fab, V domains shown)
VH: EVQLVESGGGLVQPGGSLRLSCAASGFTLYSSSIHWVRQAPGKGLEWVASISSSYSSTYYADSVKGRFTISADTSKNTAYLQMNSLRAEDTAVYYCARLAGLYHYPGYLGLDYWGQGTLVTVSS
VL: DIQMTQSPSSLSASVGDRVTITCRASQSVSSAVAWYQQKPGKAPKLLIYSASSLYSGVPSRFSGSRSGTDFTLTISSLQPEDFATYYCQQSSRSSLLTFGQGTKVEIK
notes: also called Fab Clone X7
For the molecule B1, the Kd – broadly, the free concentration of one partner at which half of the binding sites on the other are occupied at equilibrium, for simple one-to-one binding – in assay [1] was 12 nM; in [2] it was 16.2 nM; in assay [3], 4.5 nM; in assay [4], 6 nM.

B2: 3B2g2m1 (antibody, human IgG1, V domains shown)
VH: EVQLLESGGGLVQPGGSLRLSCAASGFTFSDYGMSWVRQAPGKGLEWVSAIPWSGGSTYYKESVKGRFTISRDNSKNTLYLQMNSLRAEDTAVYYCAKRSGRIAFGALDAWGQGTLVTVSS
VL: QTVVTQEPSFSVSPGGTVTLTCGLSSGSVTSSNYPDWYQQTPGQAPRTLIYSTDSRHSGVPDRFSGSILGNKAALTITGAQADDESDYYCGLYSYSGSKNYVFGGGTKLTVL
notes: human IgG1-LALA backbone; produced in HEK293 cells; also called MuSK agonist antibody 3B2g2m1; MuSK-mAb 3B2g2m1
As for B2, the R0 in the assay with rat MuSK [5] is 160 RU; in the assay with mouse MuSK [6] it was 195 RU; with cynomolgus monkey MuSK [7], 144 RU; with rat MuSK [8], 174 RU; with mouse MuSK [9], 193 RU; with cynomolgus monkey MuSK [10], 151 RU. In addition, the koff (as a rule, a measure of how fast the partners let go of each other) is 0.00193 s⁻¹ with rat MuSK [5]; 0.00104 s⁻¹ with mouse MuSK [6]; 0.00109 s⁻¹ with cynomolgus monkey MuSK [7]; 0.00555 s⁻¹ in the assay with rat MuSK [8]; 0.00339 s⁻¹ with mouse MuSK [9]; 0.00288 s⁻¹ with cynomolgus monkey MuSK [10]. The kon (commonly the rate constant with which the complex forms) in the assay with rat MuSK [5] amounted to 1.4e+06 M⁻¹ s⁻¹; with mouse MuSK [6], 1.32e+06 M⁻¹ s⁻¹; with cynomolgus monkey MuSK [7], 890000 M⁻¹ s⁻¹; with rat MuSK [8], 1.15e+06 M⁻¹ s⁻¹; with mouse MuSK [9] it was 1.18e+06 M⁻¹ s⁻¹; with cynomolgus monkey MuSK [10], 850000 M⁻¹ s⁻¹.

B3: 3B2g1m1 (antibody, human IgG1, V domains shown)
VH: EVQLLESGGGLVQPGGSLRLSCAASGFTFSDYGMSWVRQAPGKGLEWVSAIPWSGGSTYYKESVKGRFTISRDNSKNTLYLQMNSLRAEDTAVYYCAKRSGRIAFGALDAWGQGTLVTVSS
VL: QTVVTQEPSFSVSPGGTVTLTCGLSSGSVTSSNYPDWYQQTPGQAPRTLIYSTDSRHSGVPDRFSGSILGNKAALTITGAQADDESDYYCGLYMYSGSKNYVFGGGTKLTVL
notes: human IgG1-LALA backbone; produced in HEK293 cells
Consider B3, for which the R0 with rat MuSK [5] was 157 RU; in the assay with mouse MuSK [6], 193 RU; with cynomolgus monkey MuSK [7], 143 RU; with rat MuSK [8] it was 166 RU; with mouse MuSK [9], 192 RU; with cynomolgus monkey MuSK [10], 147 RU. The koff with rat MuSK [5] amounted to 0.00192 s⁻¹; with mouse MuSK [6], 0.0011 s⁻¹; with cynomolgus monkey MuSK [7], 0.00117 s⁻¹; in the assay with rat MuSK [8], 0.00595 s⁻¹; in the assay with mouse MuSK [9], 0.00339 s⁻¹; with cynomolgus monkey MuSK [10] it was 0.0029 s⁻¹. For the same molecule, the kon with rat MuSK [5] came to 1.32e+06 M⁻¹ s⁻¹; with mouse MuSK [6], 1.25e+06 M⁻¹ s⁻¹; with cynomolgus monkey MuSK [7], 840000 M⁻¹ s⁻¹; in the assay with rat MuSK [8], 1.16e+06 M⁻¹ s⁻¹; in the assay with mouse MuSK [9], 1.19e+06 M⁻¹ s⁻¹; with cynomolgus monkey MuSK [10], 810000 M⁻¹ s⁻¹.

B4: X8 Fab (Fab, V domains shown)
VH: EVQLVESGGGLVQPGGSLRLSCAASGFTVSSSSIHWVRQAPGKGLEWVASISSSSGSTSYADSVKGRFTISADTSKNTAYLQMNSLRAEDTAVYYCARSWSYHPWYYHVGWYTGLDYWGQGTLVTVSS
VL: DIQMTQSPSSLSASVGDRVTITCRASQSVSSAVAWYQQKPGKAPKLLIYSASSLYSGVPSRFSGSRSGTDFTLTISSLQPEDFATYYCQQSSSSLITFGQGTKVEIK
notes: also called Fab Clone X8
Consider B4, for which the Kd in [1] amounted to 4.7 nM; in [2], 44 nM; in assay [3] it was 1.4 nM; in assay [4] it was 1.69 nM.

(Values after US20230151091A1 (NEW YORK UNIVERSITY, published 2023).)
